In US20240132578A1:

What was measured:
Test in all cases: cell-based or functional assay
[1] = target: HIV-1 Env of isolate MGRM-C-015 (subtype C), on pseudovirus (HIV-1)
[2] = target: HIV-1 Env of pseudovirus isolate 92BR020 (clade B) (HIV-1)
[3] = target: HIV-1 Env of pseudovirus isolate APV-6 (clade B) (HIV-1)
[4] = target: HIV-1 Env of isolate MGRM-G-009 (subtype G) (HIV-1)
[5] = target: HIV-1 Env of isolate 92UG005 (HIV-1)
[6] = target: HIV-1 Env of isolate MG RM-A-010 (pseudovirus) (HIV-1)
[7] = target: HIV-1 Env of pseudovirus MGRM-F1-015 (HIV-1)
[8] = target: HIV-1 Env of pseudovirus MGRM-D-026 (HIV-1)
[9] = target: HIV-1 Env of pseudovirus MGRM-F1-022 (HIV-1)
[10] = target: HIV-1 Env of isolate MGRM-A-004 (pseudovirus) (HIV-1)
[11] = target: HIV-1 Env of isolate MGRM-D-003 (pseudovirus) (HIV-1)
[12] = target: HIV-1 Env of pseudovirus isolate MGRM-C-028 (clade C) (HIV-1)
[13] = target: HIV-1 MGRM-C-027 Env (HIV-1)
[14] = target: aMLV envelope protein on pseudovirus (negative control)
[15] = target: HIV-1 92UG005 envelope protein (Env) on pseudovirus (HIV-1)
[16] = target: HIV-1 Env of isolate 92WR009 (pseudovirus) (HIV-1)
[17] = target: HIV-1 APV6 Env (HIV-1)
[18] = target: HIV-1 MGRM-D-018 envelope protein (Env) on pseudovirus (HIV-1)
[19] = target: HIV-1 Env of pseudovirus isolate MGRM-C-008 (clade C) (HIV-1)
[20] = target: aMLV envelope
[21] = target: HIV-1 JR-CSF Env D417A (HIV-1 (isolate JR-CSF)) (UniProt P20871)
[22] = target: HIV-1 Env of isolate MGRM-D-013 (pseudovirus) (HIV-1)
[23] = target: HIV-1 MGRM-C-026 Env (HIV-1)
[24] = target: HIV-1 NL43 Env (HIV-1)
[25] = target: HIV-1 Env of isolate MGRM-F1-013 (pseudovirus) (HIV-1)
[26] = target: HIV-1 envelope glycoprotein (Env) of isolate APV_17, on pseudovirus (HIV-1)
[27] = target: HIV-1 envelope glycoprotein (Env) of isolate 6535.3, on pseudovirus (HIV-1)
[28] = target: HIV-1 Env of isolate MGRM-AG-008 (pseudovirus) (HIV-1)
[29] = target: HIV-1 envelope glycoprotein (Env) of isolate 94 KE 105, subtype AC (HIV-1)
[30] = target: HIV-1 envelope glycoprotein (Env) of isolate THRO.18, on pseudovirus (HIV-1)
[31] = target: HIV-1 envelope glycoprotein (Env) of isolate MG RM-A-004, subtype A (HIV-1)
[32] = target: HIV-1 Env of isolate MGRM-AG-005 (pseudovirus) (HIV-1)

4970_K22 (PGT-144) (antibody), sequence (VH): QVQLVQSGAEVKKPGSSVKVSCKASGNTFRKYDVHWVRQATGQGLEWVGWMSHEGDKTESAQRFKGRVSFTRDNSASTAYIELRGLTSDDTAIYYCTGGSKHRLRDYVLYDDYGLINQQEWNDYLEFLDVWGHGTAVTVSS
4970_K22 (PGT-144) (antibody), sequence (VL): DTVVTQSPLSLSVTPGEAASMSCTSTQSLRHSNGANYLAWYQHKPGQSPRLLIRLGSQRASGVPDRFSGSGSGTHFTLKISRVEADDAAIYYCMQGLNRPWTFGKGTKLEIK
PGT-145 (4995_P16) (antibody), sequence (VH): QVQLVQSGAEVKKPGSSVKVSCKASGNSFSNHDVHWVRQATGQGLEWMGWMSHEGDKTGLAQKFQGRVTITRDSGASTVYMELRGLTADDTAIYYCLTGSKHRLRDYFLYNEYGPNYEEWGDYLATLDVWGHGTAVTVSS
PGT-145 (4995_P16) (antibody), sequence (VL): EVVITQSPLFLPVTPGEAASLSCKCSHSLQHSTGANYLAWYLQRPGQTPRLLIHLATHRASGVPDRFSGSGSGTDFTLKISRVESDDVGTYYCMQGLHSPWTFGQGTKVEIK
4980_N08 (PGT-143) (antibody), sequence (VH): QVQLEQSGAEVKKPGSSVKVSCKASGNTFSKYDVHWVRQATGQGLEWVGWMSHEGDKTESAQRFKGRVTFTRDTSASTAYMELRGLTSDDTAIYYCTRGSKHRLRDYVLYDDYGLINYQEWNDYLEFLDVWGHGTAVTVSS
4980_N08 (PGT-143) (antibody), sequence (VL): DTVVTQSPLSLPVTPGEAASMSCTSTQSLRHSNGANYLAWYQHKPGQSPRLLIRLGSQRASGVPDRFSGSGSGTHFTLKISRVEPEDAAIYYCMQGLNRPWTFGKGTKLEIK
PGT-141 (4964_G22; 4993_K13) (antibody), sequence (VH): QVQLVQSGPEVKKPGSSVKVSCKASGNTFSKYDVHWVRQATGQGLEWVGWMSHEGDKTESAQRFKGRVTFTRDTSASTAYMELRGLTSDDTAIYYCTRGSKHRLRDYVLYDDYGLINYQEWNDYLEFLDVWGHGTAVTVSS
PGT-141 (4964_G22; 4993_K13) (antibody), sequence (VL): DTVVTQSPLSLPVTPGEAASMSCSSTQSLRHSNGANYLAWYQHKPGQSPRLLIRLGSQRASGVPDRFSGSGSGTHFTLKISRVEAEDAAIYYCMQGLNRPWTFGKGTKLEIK
4995_E20 (PGT-142) (antibody), sequence (VH): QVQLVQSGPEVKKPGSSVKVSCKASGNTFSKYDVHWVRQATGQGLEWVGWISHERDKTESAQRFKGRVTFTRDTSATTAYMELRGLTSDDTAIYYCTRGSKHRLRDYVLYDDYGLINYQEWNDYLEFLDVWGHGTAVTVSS

Substance	IC50, single-round pseudovirus neutralization [1] [µg/mL]	IC50, pseudovirus neutralization [2] [µg/mL]	IC50, pseudovirus neutralization [3] [µg/mL]	IC50 (µg/mL), pseudovirus neutralization [4] [µg/mL]	IC50 (µg/mL), pseudovirus neutralization [5] [µg/mL]	IC50 (µg/mL), single-round pseudovirus neutralization [6] [µg/mL]	IC50, pseudovirus neutralization [7] [µg/mL]	IC50, pseudovirus neutralization [8] [µg/mL]	IC50, pseudovirus neutralization [9] [µg/mL]	IC50 (µg/mL), pseudovirus neutralization [10] [µg/mL]	IC50 (µg/mL), pseudovirus neutralization [11] [µg/mL]	IC50, pseudovirus neutralization [12] [µg/mL]	IC50 (µg/mL), pseudovirus neutralization [16] [µg/mL]	IC50, pseudovirus neutralization [19] [µg/mL]	IC50 (µg/mL), pseudovirus neutralization [22] [µg/mL]	also measured
4980_N08 (PGT-143) (antibody)	0.085	25.9	14	2.97	> 50	0.019										
VRC01 (antibody)	1.57	0.29	1.81	0.073	0.576	0.325	0.387	0.435	0.055							
4970_K22 (PGT-144) (antibody)	0.236	44	> 50	> 50	> 50	2.79										
PGT-143 (4980_N08) (antibody)							> 50	44.6	0.082							
5147_N06 (PGT-130) (antibody)										> 50	0.651	> 50	1.27	7.28	0.429	IC50, pseudovirus neutralization [13]: 0.0052 µg/mL; IC50 (ug/mL), pseudovirus neutralization [14]: > 10 µg/mL; IC50 (ug/mL), pseudovirus neutralization [15]: 0.474 µg/mL; IC50, pseudovirus neutralization [17]: > 10 µg/mL; IC50 (ug/mL), pseudovirus neutralization [18]: 0.0378 µg/mL; IC50, pseudovirus neutralization [20]: > 10 µg/mL; Fold IC50 increase relative to wild-type (pseudovirus neutralization) [21]: 1 fold; IC50, pseudovirus neutralization [23]: 0.0173 µg/mL; IC50, pseudovirus neutralization [24]: > 10 µg/mL
PGT-144 (4970_K22) (antibody)							> 50	> 50	0.382							
5345_I01 (PGT-137) (antibody)										> 50	> 50	> 50	> 50	> 50	> 50	
4858_P08 (PGT-123) (antibody)																IC50 (µg/mL), pseudovirus neutralization [25]: 0.08 µg/mL; IC50, pseudovirus neutralization [26]: 0.114 µg/mL; IC50, pseudovirus neutralization [13]: 0.0169 µg/mL; IC50 (ug/mL), pseudovirus neutralization [14]: > 10 µg/mL; IC50, pseudovirus neutralization [27]: 0.004 µg/mL; IC50 (ug/mL), pseudovirus neutralization [15]: 2.49 µg/mL; IC50, pseudovirus neutralization [17]: 0.0327 µg/mL; IC50 (µg/mL), pseudovirus neutralization [28]: 19.2 µg/mL; IC50 (ug/mL), pseudovirus neutralization [18]: 0.0047 µg/mL; IC50, pseudovirus neutralization [29]: 0.024 µg/mL; IC50, pseudovirus neutralization [30]: > 50 µg/mL; IC50, pseudovirus neutralization [31]: > 50 µg/mL; IC50, pseudovirus neutralization [20]: > 10 µg/mL; IC50 (µg/mL), pseudovirus neutralization [32]: 0.149 µg/mL; Fold IC50 increase relative to wild-type (pseudovirus neutralization) [21]: 0.7 fold; IC50, pseudovirus neutralization [23]: 0.0031 µg/mL; IC50, pseudovirus neutralization [24]: > 10 µg/mL
5114_A19 (PGT-128) (antibody)										> 50	0.019	14.4	0.812	0.373	8.85	Fold IC50 increase relative to wild-type (pseudovirus neutralization) [21]: 0.5 fold
4993_K13 (PGT-141) (antibody)	0.033	20.3	14.2	1.89	> 5	0.022										
5329_C19 (PGT-136) (antibody)										> 50	> 50	33.7	> 50	> 50	> 50	IC50 (ug/mL), pseudovirus neutralization [14]: > 10 µg/mL; IC50 (ug/mL), pseudovirus neutralization [15]: > 10 µg/mL; IC50 (ug/mL), pseudovirus neutralization [18]: > 10 µg/mL
4995_P16 (PGT-145) (antibody)	0.12	1.05	0.104	0.982	> 50	0.028										
PGT-141 (4964_G22; 4993_K13) (antibody)							> 50	32.5	0.114							
5136_H01 (PGT-131) (antibody)										> 50	19.6	> 50	3.12	> 50	4.14	Fold IC50 increase relative to wild-type (pseudovirus neutralization) [21]: 1 fold
PGT-145 (4995_P16) (antibody)							1.76	0.41	0.009							
PGT-142 (4995_E20) (antibody)							> 50	12.5	0.04							
5343_B08 (PGT-135) (antibody)										> 50	> 50	1.47	> 50	> 50	> 50	IC50 (ug/mL), pseudovirus neutralization [14]: > 10 µg/mL; IC50 (ug/mL), pseudovirus neutralization [15]: > 10 µg/mL; IC50 (ug/mL), pseudovirus neutralization [18]: 0.0433 µg/mL; Fold IC50 increase relative to wild-type (pseudovirus neutralization) [21]: 5 fold
4995_E20 (PGT-142) (antibody)	0.038	15.1	4.72	2.81	> 50	0.015										
